# In US7754686B2, “Stabilized FGF formulations containing reducing agents” (Novartis Vaccines and Diagnostics, Inc., priority 2000, dated 2010):
# Key:
# [1] = Storage stability of lyophilized FGF-2 formulations by RP-HPLC (% main peak); type: physicochemical; settings: 0.35 and 3.5 mg/ml, 10 mM DTT, pH 6.0, storage at 30° C. for 1 year, FIG. 7
# Procedure: Reversed Phase HPLC (RP-HPLC) was performed using a Waters 600S controller and a Waters 717 autosampler. Separations were accomplished on a Zorbax 300SB-CN, 4.6 mm ID×15 cm, 5:, cyano column with sample detection at 214 nm on a Waters 486 UV detector. Samples were run at 1.0 mL/min and injection volumes were 50 μL (˜15 μg of protein per injection).
# rhFGF-2 was lyophilized using the following cycle: Vials were placed on pre-cool shelves set at 10° C. The shelf temperature was ramped at 40° C./hour to −50° C. where the vials were frozen for 2 hours. The temperature of the shelves was then ramped at 40° C. per hour to −25° C. and held for 2 hours to crystallize the glycine in the formulation. A vacuum of 50 μm was then initiated, and primary drying was accomplished over 32 hours. After primary drying was complete, the shelf temperature was ramped at 25° C./hour to 40° C. for 8 hours. The temperature was then reduced to 4° C. and the vials were stoppered and capped.
# FGF-2 stability was examined in both liquid and lyophilized (freeze-dried) formulations using RP-HPLC. As in the previous study, liquid formulations were stored at 4° C., 17° C., and 30° C.
# Lyophilized formulations were stored at 40° C. and 50° C. […]
# Lyophilized formulations were stored for 12 months at 4° C., 25° C. and 30° C. Stability was monitored with a number of stability indicating assays. […]
# [2] = Storage stability of liquid FGF-2 formulations by RP-HPLC (% main peak); type: physicochemical; settings: 0-10 mM DTT, FIGS. 1-3
# Procedure: Reversed Phase HPLC (RP-HPLC) was performed using a Waters 600S controller and a Waters 717 autosampler. Separations were accomplished on a Zorbax 300SB-CN, 4.6 mm ID×15 cm, 5:, cyano column with sample detection at 214 nm on a Waters 486 UV detector. Samples were run at 1.0 mL/min and injection volumes were 50 μL (˜15 μg of protein per injection). […] Much of FGF-2 instability in pharmaceutical formulations can be attributed to oxidation. The stability of FGF-2 in different formulations can be quantitated by measuring the retention of the main peak using RP-HPLC. This main peak corresponds to the FGF-2 that remains in the reduced form. Using the analytical procedures described herein, the storage stability of FGF-2 under several conditions was followed by monitoring changes in the RP-HPLC main peak as a function of storage time at 4° C., 17° C., and 30° C. Experiments were conducted to determine the appropriate levels of dithiothreitol (DTT) required for maximum stability of FGF-2 formulations. Concentrations of DTT from 0 to 10 mM were examined in formulations between pH 5.5 and pH 6.5. In this example, all formulations were liquids and were produced from the same lot of bulk drug. Formulations were stored at 4° C., 17° C., and 30° C. […] Stability of the formulations was assessed by a number of assays. […]
Molecule,degradation (RP-HPLC main peak) [1],protection of FGF-2 from oxidation [2]
rhFGF-2: recombinant human FGF-2 having the sequence set forth in SEQ ID NO:1,little (if any) detectable degradation,
"O[C@H](CS)[C@H](O)CS (racemic) [DTT, dithiothreitol]",,protects FGF-2 from oxidation in a concentration-dependent manner
